Laboratory results reported in patent US20110268660A1, “METHOD FOR DETECTING DYSPLASIA” (priority 2008, published 2011).

How the values were obtained:
[1] = molecular target: human recombinant EGFR/Fc chimera (R&D systems, cat. no 344-ER) (human) (UniProt P00533); assay: fluorescence polarization, 5 nM dye-labelled ligand, EGFR/Fc titrated 0-258 nM, in solution
human EGFR = molecular target: T1, human EGFR (Homo sapiens, UniProt P00533); assay: Fluorescence polarization binding assay; details: dye-labelled ligand 5 nM; human recombinant EGFR/Fc chimera 0-258 nM; 10 min at 30° C.; triplicates; read-out: Kd value towards human EGFR
T1 construct: purchased R&D systems 344-ER
Experimental: The fluorescence polarization binding measurements were performed as triplicates in 384-well microplates in a volume of 40 μL in binding buffer (PBS, 0.01% Tween-20, pH 7.5) using a Tecan Safire fluorescence polarisation plate reader at ex646/em678 nm. The concentration of dye-labelled ligand was held constant (5 nM) and the concentrations of the target (human recombinant EGFR/Fc chimera from R&D systems, cat. no 344-ER) was varied from 0-258 nM. Binding mixtures were equilibrated in the microplate for 10 min at 30° C.
Data fitting was performed via nonlinear regression using SigmaPlot software (version 10) to obtain the Kd value.

| Kd [1] [nM] | Kd (human EGFR) [nM] | Substance |
| --- | --- | --- |
| 4.1 |  | anti-EGFR Affibody His6-ZEGFR:1907-Cys(Cy5**) (Compound 14) (designed binder) |
|  | 4.1 | anti-EGFR Affibody His6-ZEGFR:1907-Cys(Cy5**) [Compound 14] |
